Patent US20160115235A1 (ARES TRADING S A, published 2016)
Substitutions are numbered along the chain they refer to.

T1: human CXCR5 (human, UniProt P32302 1-372)
T1 sequence: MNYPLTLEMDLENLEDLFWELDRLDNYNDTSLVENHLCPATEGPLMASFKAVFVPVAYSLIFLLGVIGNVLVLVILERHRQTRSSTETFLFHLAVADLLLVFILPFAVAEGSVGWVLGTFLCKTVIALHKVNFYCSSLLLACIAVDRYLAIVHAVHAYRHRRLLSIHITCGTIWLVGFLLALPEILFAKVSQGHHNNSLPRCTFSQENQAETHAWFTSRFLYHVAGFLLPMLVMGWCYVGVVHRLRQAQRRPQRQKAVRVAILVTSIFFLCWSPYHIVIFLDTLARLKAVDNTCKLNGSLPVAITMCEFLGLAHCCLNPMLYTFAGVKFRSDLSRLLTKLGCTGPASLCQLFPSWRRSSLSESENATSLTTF

T2: cynomolgus monkey (Macaca fascicularis) CXCR5 (cynomolgus monkey (Macaca fascicularis), UniProt P32302 1-372 (human entry))
T2 chain: T1 sequence with W19L, L21F, R23K, L24F, L180F, G193A, H195P, A285V, K295E, R357K

T3: rat CXCR5 (rat, UniProt P34997 1-374)
T3 construct: whole, on cells
T3 sequence (looked up): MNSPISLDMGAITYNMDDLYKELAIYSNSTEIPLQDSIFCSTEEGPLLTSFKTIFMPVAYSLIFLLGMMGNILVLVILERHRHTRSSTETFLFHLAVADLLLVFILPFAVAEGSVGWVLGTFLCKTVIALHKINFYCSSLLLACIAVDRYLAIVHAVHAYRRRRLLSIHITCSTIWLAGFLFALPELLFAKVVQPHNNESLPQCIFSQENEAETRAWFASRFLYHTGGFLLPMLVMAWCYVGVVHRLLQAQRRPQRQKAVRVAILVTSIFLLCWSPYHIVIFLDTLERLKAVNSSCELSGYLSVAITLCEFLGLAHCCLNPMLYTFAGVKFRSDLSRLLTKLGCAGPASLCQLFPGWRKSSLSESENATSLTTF

T4: mouse CXCR5 (mouse, UniProt Q04683 1-374)
T4 construct: whole, on cells
T4 sequence (looked up): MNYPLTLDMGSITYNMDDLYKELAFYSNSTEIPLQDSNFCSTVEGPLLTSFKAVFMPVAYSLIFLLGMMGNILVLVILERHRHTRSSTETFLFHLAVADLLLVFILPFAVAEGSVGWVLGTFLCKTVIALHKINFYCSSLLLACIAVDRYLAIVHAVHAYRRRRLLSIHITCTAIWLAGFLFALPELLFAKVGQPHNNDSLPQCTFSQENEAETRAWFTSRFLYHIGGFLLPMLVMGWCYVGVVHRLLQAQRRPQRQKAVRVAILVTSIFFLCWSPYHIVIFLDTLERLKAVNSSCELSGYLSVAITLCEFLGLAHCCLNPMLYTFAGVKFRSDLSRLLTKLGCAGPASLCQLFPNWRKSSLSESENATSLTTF

B1: anti-CXCR5 40C01-VH1-Vk3 as IgG4 (antibody)
heavy: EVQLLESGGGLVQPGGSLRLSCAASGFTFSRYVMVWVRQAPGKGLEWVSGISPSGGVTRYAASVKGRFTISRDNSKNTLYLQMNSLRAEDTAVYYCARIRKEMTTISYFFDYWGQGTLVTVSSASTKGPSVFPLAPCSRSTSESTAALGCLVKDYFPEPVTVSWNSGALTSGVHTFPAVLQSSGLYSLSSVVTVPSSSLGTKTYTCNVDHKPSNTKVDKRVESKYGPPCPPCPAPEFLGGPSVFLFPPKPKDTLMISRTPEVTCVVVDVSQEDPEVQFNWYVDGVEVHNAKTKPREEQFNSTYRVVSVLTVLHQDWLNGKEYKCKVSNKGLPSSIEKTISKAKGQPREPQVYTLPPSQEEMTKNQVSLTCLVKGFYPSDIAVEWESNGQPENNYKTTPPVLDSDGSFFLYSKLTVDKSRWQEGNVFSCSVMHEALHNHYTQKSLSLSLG
light: DIQMTQSPSSLSASVGDRVTITCRASQGVDAYVAWYQQKPGKVPKLLIYSTSTLASGVPSRFSGSGSGTDFTLTISSLQPEDVATYYCQSHNAAVVTFGQGTRLEIKRTVAAPSVFIFPPSDEQLKSGTASVVCLLNNFYPREAKVQWKVDNALQSGNSQESVTEQDSKDSTYSLSSTLTLSKADYEKHKVYACEVTHQGLSSPVTKSFNRGEC
B2: anti-CXCR5 40C01-VH2-Vk3 as IgG4 (antibody)
heavy: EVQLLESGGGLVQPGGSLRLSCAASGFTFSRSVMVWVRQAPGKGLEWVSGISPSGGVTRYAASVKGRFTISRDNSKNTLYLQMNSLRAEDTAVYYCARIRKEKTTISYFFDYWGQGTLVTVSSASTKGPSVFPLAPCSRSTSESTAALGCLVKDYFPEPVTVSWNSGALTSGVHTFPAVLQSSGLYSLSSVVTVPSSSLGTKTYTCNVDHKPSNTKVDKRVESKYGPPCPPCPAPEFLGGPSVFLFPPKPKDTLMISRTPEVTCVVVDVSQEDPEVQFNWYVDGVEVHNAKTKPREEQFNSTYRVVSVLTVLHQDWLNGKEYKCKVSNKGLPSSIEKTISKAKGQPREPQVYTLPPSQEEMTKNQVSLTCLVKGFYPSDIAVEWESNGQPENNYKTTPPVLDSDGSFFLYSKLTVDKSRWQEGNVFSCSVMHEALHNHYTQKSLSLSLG
light: B1 light
B3: anti-CXCR5 40C01-VH1-Vk3-IgG1 (antibody)
heavy: not shown
light: B1 light
B4: recombinant Fab fragment of 40C01-VH1-Vk3 (Fab, V domains shown)
VH: EVQLLESGGGLVQPGGSLRLSCAASGFTFSRYVMVWVRQAPGKGLEWVSGISPSGGVTRYAASVKGRFTISRDNSKNTLYLQMNSLRAEDTAVYYCARIRKEMTTISYFFDYWGQGTLVTVSS
VL: DIQMTQSPSSLSASVGDRVTITCRASQGVDAYVAWYQQKPGKVPKLLIYSTSTLASGVPSRFSGSGSGTDFTLTISSLQPEDVATYYCQSHNAAVVTFGQGTRLEIK
B5: anti-CXCR5 40C01-VH2-Vk3 as IgG1 (antibody)
VH: B4 VH with Y32S, M103K
light: B1 light
B6: recombinant Fab fragment of 40C01-VH2-Vk3 (Fab, V domains shown)
VH: B4 VH with Y32S, M103K
VL: B4 VL
B7: mAb 42F03 (antibody, human IgG1, V domains shown)
VH: EVQLLESGGGLVQPGGSLRLSCAASGFTFSWYPMTWVRQAPGKGLEWVSYIRSSGGFTKYADSVKGRFTISRDNSKNTLYLQMNSLRAEDTAVYYCARGLYRWGQGTLVTVSS
VL: IQMTQSPGTLSLSPGERATLSCRASQSVSNNYLAWYQQKPGQAPRLLISGASRRATDIADRFSGSGSGTDFTLTISRLEPEDFAVYYCQQYDSFPLTFGGGTKVEIK
B8: mAb 80A11 (antibody, V domains shown)
VH: EVQLLESGGGLVQPGGSLRLSCAASGFTFSRYPMGWVRQAPGKGLEWVSSISPSGGMTRYADSVKGRFTISRDNSKNTLYLQMNSLRAEDTAVYYCARLKFTSGRTFDIWGQGTMVTVSS
VL: DIQMTQSPATLSLSPGERATLSCRASQSVSSYLAWYQQKPGQAPRLLIYGASSRVPGVPDRFTGSGSETDFTLTITRLEPEDFAVYYCQLSSSSPSWTFGQGTRLEIK
B9: mAb 12A01 (antibody, V domains shown)
VH: B4 VH with E46D, A62D, V93M
VL: B4 VL with S9D, A31I, I48M, Y49H, T51A, S65R, S76N, P80A, A93S
B10: mAb 40C01 (antibody, V domains shown)
VH: B4 VH with E46D, A62D, V93M
VL: DIQMTRAPDSLSASVGDRVTITCRASQGVDIYVAWYQQKPGKAPKLLMHSASTLASGVPSRFSGRGSGTDFTLTINSLQAEDVATYYCQSHNSAVVTFGQGTRLEIK
notes: also called 40C01 VH-VL; 40C01 parental molecule
B11: mAb 80D11 (antibody, V domains shown)
VH: EVQLLESGGGLVQPGGSLRLSCAASGFTFSHYWMQWVRQAPGKGLEWVSSISSSGGKTRYADSVKGRFTISRDNSKNTLYLQMNSLRAEDTAVYYCATAGYSSGWGQGTLVTVSS
VL: QSALTQPASVSGSPGQSITISCTGTSSDVGGYNYLSWYQQHPGKAPKLMIYGVSNRPSGVSTRFSGSKSGNTASLTISGLQAEDEADYYCSSYTSTGTRVFGGGTRLTVL
B12: mAb 80B09 (antibody, V domains shown)
VH: EVQLLESGGGLVQPGGSLRLSCAASGFTFSKYNMLWVRQAPGKGLEWVSVISPSGGRTSYADSVKGRFTISRDNSKNTLYLQMNSLRAEDTAVYYCARHTSITMFDYWGQGTLVTVSS
VL: QSALTQPASVSGSPGQSITISCTGTSSDIGSYNYVSWYQQHPGRAPKVMIYDVTYRPSGVSNRFSGSKSGNTASLTISGLQAEDEADYYCGSYRKSSLYVFGTGTKVTVL
B13: mAb 80A10 (antibody, V domains shown)
VH: EVQLLESGGGLVQPGGSLRLSCAASGFTFSMYVMKWVRQAPGKGLEWVSGIRSSGGDTSYADSVKGRFTISRDNSKNTLYLQMNSLRAEDTAVYYCARQSRYCNGGSCYSRAFDIWGQGTMVTVSS
VL: QPPSASGTPGQRVTISCFGSNSNIGSTYAYWYQQVPGTAPKLLIYRNNQRPSGVPDRFSGSKSGTSASLAISGLRSEDEADYYCAAWDVNLSGHWVFGGGTKLTVLG

What follows are binders tested against T1, human CXCR5 (assay: cell-based or functional assay).

| efficacy of inhibition of CXCL13-stimulated L1.2-CXCR5 chemotaxis [%] | IC50, inhibition of human CXCR5-L1.2 cell chemotaxis [nM] | mean IC50, inhibition of CXCL13-stimulated chemotaxis of primary human B cells in human serum [nM] | Binder |
| --- | --- | --- | --- |
| 100 |  |  | B1 |
| 100 |  |  | B2 |
| 100 | 0.38 | 1.89 | B3 |
|  | 288 |  | B4 |
| 100 | 0.05 | 0.34 | B5 |
|  | 20.9 |  | B6 |

Biological target: T2, cynomolgus monkey (Macaca fascicularis) …
Assay: cell-based or functional assay

| efficacy of inhibition of CXCL13-stimulated L1.2-CXCR5 chemotaxis [%] | Binder |
| --- | --- |
| 100 | B3 |
| 100 | B5 |

Biological target: T1, human CXCR5
Assay: cell-based or functional assay
Remark: another data set of the same source

| Mean IC50 (nM) on L1.2/human CXCR5 cells (chemotaxis) [nM] | Binder |
| --- | --- |
| 1.86 | B7 |
| 1.85 | B8 |
| 2200 | B9 |
| 5.6 | B10 |
| 37 | B11 |
| 251 | B12 |
| 4.7 | B13 |

Biological target: T1, human CXCR5
Assay: cell-based or functional assay
Remark: another data set of the same source

| IC50, inhibition of CXCL13-induced L1.2-CXCR5 chemotaxis [nM] | Binder |
| --- | --- |
| 2.1 | B1 |
| 0.103 | B2 |
| 1.81 | B3 |
| 0.098 | B5 |

Biological target: T2, cynomolgus monkey (Macaca fascicularis) …
Assay: cell-based or functional assay
Remark: another data set of the same source

| IC50, inhibition of CXCL13-induced L1.2-CXCR5 chemotaxis [nM] | Binder |
| --- | --- |
| 0.19 | B3 |
| 0.17 | B5 |

Biological target: T1, human CXCR5
Assay: cell-based or functional assay
Remark: another data set of the same source

| IC50, inhibition of ERK phosphorylation in whole blood (B cells, CXCL13-stimulated) [nM] | Binder |
| --- | --- |
| 0.17 | B3 |
| 0.45 | B5 |

Biological target: T2, cynomolgus monkey (Macaca fascicularis) …
Assay: FACS on CXCR5 expressing cells
Procedure: (§1) Binding of anti-CXCR5 antibodies to cell lines and primary cells expressing human CXCR5 or species orthologues was assessed by FACS. Briefly, approximately 1×10⁵ CXCR5 expressing cells were suspended in FACS buffer (PBS containing 1% FBS and 0.02% sodium azide) containing increasing concentrations of anti-CXCR5 antibodies ranging from 0-100 μg/ml, and incubated for 20 min at 4° C. Cells were washed and then resuspended in FACS buffer containing PE-labelled goat anti-human IgG (Jackson labs) for 20 min at 4° C. Cells were then washed 3 times and resuspended in 100 μl FACS buffer and analysed on a FACScalibur instrument (BD Sciences). MFI was plotted against antibody concentration and Graph pad prism software was used to calculate EC₅₀ values.

| binding result | Binder |
| --- | --- |
| binds | B9 |
| binds | B10 |
| binds | B11 |

The binders below were run against T3, rat CXCR5 (assay: FACS on cells expressing species orthologues).
Procedure: as §1

| binding result | Binder |
| --- | --- |
| no binding | B7 |
| no binding | B8 |
| no binding | B9 |
| no binding | B10 |
| no binding | B11 |
| no binding | B12 |
| no binding | B13 |

The binders below were run against T4, mouse CXCR5 (assay: FACS on cells expressing species orthologues).
Procedure: as §1

| binding result | Binder |
| --- | --- |
| no binding | B7 |
| no binding | B8 |
| no binding | B9 |
| no binding | B10 |
| no binding | B11 |
| no binding | B12 |
| no binding | B13 |
